Test results as given in patent publication US20230302123A1.

Biological target: ubiquitin-specific protease 7 (USP7/HAUSP), endogenous in human H1299 and HCT116 cells (human) (UniProt Q93009)
Test: cell-based or functional assay

Sequence of UniProt Q93009 (Q93009 whole entry): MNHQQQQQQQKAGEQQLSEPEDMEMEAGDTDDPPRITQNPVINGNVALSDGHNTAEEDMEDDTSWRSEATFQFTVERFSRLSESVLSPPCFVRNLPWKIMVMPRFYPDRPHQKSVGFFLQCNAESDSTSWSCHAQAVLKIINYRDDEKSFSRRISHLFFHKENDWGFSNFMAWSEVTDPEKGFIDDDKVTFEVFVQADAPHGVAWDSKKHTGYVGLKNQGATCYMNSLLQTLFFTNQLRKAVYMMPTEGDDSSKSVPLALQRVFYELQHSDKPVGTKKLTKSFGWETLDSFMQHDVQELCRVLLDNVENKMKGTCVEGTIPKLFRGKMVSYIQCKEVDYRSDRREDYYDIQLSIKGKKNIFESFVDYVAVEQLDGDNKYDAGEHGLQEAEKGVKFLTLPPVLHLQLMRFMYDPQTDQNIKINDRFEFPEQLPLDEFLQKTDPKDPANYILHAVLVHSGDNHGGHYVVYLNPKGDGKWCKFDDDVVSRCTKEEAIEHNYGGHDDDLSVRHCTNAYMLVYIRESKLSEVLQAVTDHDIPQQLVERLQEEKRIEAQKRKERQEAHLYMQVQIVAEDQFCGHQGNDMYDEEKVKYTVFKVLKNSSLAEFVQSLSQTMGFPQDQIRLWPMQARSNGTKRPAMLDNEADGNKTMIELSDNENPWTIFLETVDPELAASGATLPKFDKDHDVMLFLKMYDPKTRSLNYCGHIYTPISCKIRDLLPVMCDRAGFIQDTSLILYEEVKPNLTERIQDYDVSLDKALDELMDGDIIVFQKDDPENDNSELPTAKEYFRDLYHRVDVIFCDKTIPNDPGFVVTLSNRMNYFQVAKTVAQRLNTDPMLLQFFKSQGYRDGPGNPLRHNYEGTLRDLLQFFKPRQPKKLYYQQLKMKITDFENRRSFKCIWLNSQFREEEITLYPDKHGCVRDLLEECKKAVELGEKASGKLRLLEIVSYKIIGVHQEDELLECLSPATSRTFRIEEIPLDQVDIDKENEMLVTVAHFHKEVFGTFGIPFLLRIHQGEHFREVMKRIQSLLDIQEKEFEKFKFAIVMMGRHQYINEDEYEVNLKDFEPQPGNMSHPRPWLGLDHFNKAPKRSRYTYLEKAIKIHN

“DBP-S76A of the virus mutant UBM2 (H5pm4250) (from UniProt P03265 1-529)” gave a USP7 diffusely distributed within the nucleus, 48 h p.i. (immunofluorescence) (% of the UBM2-infected cells) of 45, a partial relocalization of USP7 into ring-like or rosette-shaped replication centers, 48 h p.i. (immunofluorescence) (% of the UBM2-infected cells) of 55 and a relocalization of USP7 into viral replication centers (immunofluorescence) (% of the infected cells) of 100.
